# Like-named read-outs stand apart in the source and are kept apart here.
# How the values were obtained:
# [1] = target: gene product 11 (gp11), DNA packaging ATPase from Lactococcus lactis phage asccφ28 (Lactococcus lactis phage asccφ28); test: AUC
# [2] = target: gene product 11 (gp11), DNA packaging ATPase from Lactococcus lactis phage asccφ28 (Lactococcus lactis phage asccφ28); test: AUC; sedimentation velocity, data not shown
# [3] = target: gene product 11 (gp11), DNA packaging ATPase from Lactococcus lactis phage asccφ28 (Lactococcus lactis phage asccφ28); test: SEC
# [4] = system: T1, gp11; test: coupled pyruvate kinase / lactate dehydrogenase assay, NADH absorbance at […] nm; format: biochemical, Lactococcus phage asccphi28; conditions: 0.1 µM gp11, 50 mM Tris pH 7.5, 72 mM KCl, 7.2 mM MgSO4, 2 mM PEP, 0.3 mM NADH
# T1 construct: E. coli BL21(DE3)
compound,measurement,setting,value
"gene product 11 (gp11), DNA packaging ATPase from Lactococcus lactis phage asccφ28 (enzyme)",stoichiometry N,[1],10 monomers
same,stoichiometry N,[2],10 monomers
same,stoichiometry N,[3],4 to 15 copies
Nc1ncnc2c1ncn2[C@@H]1O[C@H](COP(=O)(O)OP(=O)(O)OP(=O)(O)O)[C@@H](O)[C@H]1O [ATP],Km,[4]; read-out: ATP,28 µM
Nc1nc2c(ncn2[C@@H]2O[C@H](COP(=O)(O)OP(=O)(O)OP(=O)(O)O)[C@@H](O)[C@H]2O)c(=O)[nH]1 [GTP],Km,[4]; read-out: GTP,344 µM

# Source: publication PMC7823558 (Viruses, 2020)
